From publication PMC9621694

Target: purified trimeric native F protein of respiratory syncytial virus (respiratory syncytial virus) (UniProt P03420)
Experiment: SPR; normalized maximum SPR signal of purified scaffolds, point mutants and RSV-F at various concentrations of hRSV90 antibody, sigmoid fits

purified trimeric native F protein of respiratory syncytial virus (respiratory syncytial virus), sequence (P03420 138-513): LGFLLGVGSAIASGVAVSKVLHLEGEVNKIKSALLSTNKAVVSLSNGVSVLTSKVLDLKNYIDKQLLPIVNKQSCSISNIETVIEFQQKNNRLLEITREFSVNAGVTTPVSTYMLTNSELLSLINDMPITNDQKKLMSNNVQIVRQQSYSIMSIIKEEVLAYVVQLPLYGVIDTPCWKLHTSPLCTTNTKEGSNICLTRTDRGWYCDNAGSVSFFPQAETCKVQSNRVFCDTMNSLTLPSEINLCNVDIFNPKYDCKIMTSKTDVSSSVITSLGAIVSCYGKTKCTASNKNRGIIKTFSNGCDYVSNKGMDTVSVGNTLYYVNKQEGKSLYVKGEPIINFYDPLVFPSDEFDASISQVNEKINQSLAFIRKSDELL

neutralizing antibody hRSV90
Kd: 0.023 µM
